Assay results taken from patent publication US8859223.

Experiments:
APSL-DAHF = target: T1, APSL-DAHF
T1 chain: APSLDAHF

ASNL-DAHF = target: T2, ASNL-DAHF
T2 chain: ASNLDAHF

DETL-DAHF = target: T3, DETL-DAHF
T3 chain: DETLDAHF

EI(Thi)(Thi)-(Nva)AHF = target: T4, EI(Thi)(Thi)-(Nva)AHF
T4 chain: EIXXXAHF

EIDL-MVLD = target: T5, EIDL-MVLD
T5 chain: EIDLMVLD

EIDL-SSHD = target: T6, EIDL-SSHD
T6 chain: EIDLSSHD

EVNF-EVEF = target: T7, EVNF-EVEF
T7 chain: EVNFEVEF

EVNL-DAEF = target: T8, EVNL-DAEF
T8 chain: EVNLDAEF

EVNL-DAHF = target: T9, EVNL-DAHF
T9 chain: EVNLDAHF

EVNL-SSHD = target: T10, EVNL-SSHD
T10 chain: EVNLSSHD

B1: BACE enzyme (beta-secretase) (protein)
chain: ETDEEPEEPGRRGSFVEMVDNLRGKSGQGYYVEMTVGSPPQTLNILVDTGSSNFAVGAAPHPFLHRYYQRQLSSTYRDLRKGVYVPYTQGKWEGELGTDLVSIPHGPNVTVRANIAAITESDKFFINGSNWEGILGLAYAEIARPDDSLEPFFDSLVKQTHVPNLFSLQLCGAGFPLNQSEVLASVGGSMIIGGIDHSLYTGSLWYTPIRREWYYEVIIVRVEINGQDLKMDCKEYNYDKSIVDSGTTNLRLPKKVFEAAVKSIKAASSTEKFPDGFWLGEQLVCWQAGTTPWNIFPVISLYLMGEVTNQSFRITILPQQYLRPVEDVATSQDDCYKFAISQSSTGTVMGAVIMEGFYVVFDRARKRIGFAVSACHVHDEFRTAAVEGPFVTLDMEDCGYNIPQTDESTLMTIAY
In the case of B1, the “Percent Cleavage after 10 hr Incubation with BACE” value (shortened to “Percent Cleavage”) (APSL-DAHF) is reported as 0.5%, the “Percent Cleavage” value (ASNL-DAHF) is reported as “Not Detected” and the “Percent Cleavage” value (DETL-DAHF) is reported as 1%. The “Percent Cleavage” value (EI(Thi)(Thi)-(Nva)AHF) was 25%, the “Percent Cleavage” value (EIDL-MVLD) was 20% and the “Percent Cleavage” value (EIDL-SSHD) was 5%. For the same protein, the “Percent Cleavage” value (EVNF-EVEF) was 85%, the “Percent Cleavage” value (EVNL-DAEF) was 50% and the “Percent Cleavage” value (EVNL-DAHF) was 50%. The “Percent Cleavage” value (EVNL-SSHD) was 3.5%.
